One block for each substance: values may come before it.
Legend:
Assay in all cases: SEC; SEC-HPLC, Superose 6, PBS pH 7.4, samples at 2 mg/mL; 24-mer assembly
[1] = biological target: human H-chain ferritin mutant C (Q14A/D15A/R22A/F81A/Q83A) (human)
[2] = biological target: human H-chain ferritin mutant A (Q14A/D15A/R22A) (human)
[3] = biological target: human H-chain ferritin mutant B (F81A/Q83A) (human)
[4] = biological target: human L-chain ferritin mutant D (S5T/T14Q/S22R/L81F/D116E/A119K/A123D following H-Ft numbering) (human)

stoichiometry N [1]: 24
Substance: human H-chain ferritin mutant C (Q14A/D15A/R22A/F81A/Q83A) (natural protein)

stoichiometry N [2]: 24
Substance: human H-chain ferritin mutant A (Q14A/D15A/R22A) (natural protein)

stoichiometry N [3]: 24
Substance: human H-chain ferritin mutant B (F81A/Q83A) (natural protein)

stoichiometry N [4]: 24
Substance: human L-chain ferritin mutant D (S5T/T14Q/S22R/L81F/D116E/A119K/A123D following H-Ft numbering) (natural protein)

Source: paper PMC6408514
